According to patent publication US20140087995A1 (published 2014):
Numbered stars: 1 amine (or outer) side, 2 acyl side, 3 side chain; on linkers, the order of the positions; unused ones are H or OH. Bridge positions count the residues as written; N and C are the ends. Square brackets hold non-standard residues; d marks the D form. Side chains are listed from the residue outwards. Ends that are not written are not given here. * marks the point of attachment. C20 diacid = O=C(O)CCCCCCCCCCCCCCCCCCC(=O)*; C18 diacid = O=C(O)CCCCCCCCCCCCCCCCC(=O)*; C16 diacid = O=C(O)CCCCCCCCCCCCCCC(=O)*; γGlu = O=C(O)[C@H](CCC(=O)[*:2])N[*:1]; C14 diacid = O=C(O)CCCCCCCCCCCCC(=O)*; AEEA = NCCOCCOCC(=O)O

T1: human calcitonin receptor (human, UniProt P30988 25-474)
T1 sequence (looked up): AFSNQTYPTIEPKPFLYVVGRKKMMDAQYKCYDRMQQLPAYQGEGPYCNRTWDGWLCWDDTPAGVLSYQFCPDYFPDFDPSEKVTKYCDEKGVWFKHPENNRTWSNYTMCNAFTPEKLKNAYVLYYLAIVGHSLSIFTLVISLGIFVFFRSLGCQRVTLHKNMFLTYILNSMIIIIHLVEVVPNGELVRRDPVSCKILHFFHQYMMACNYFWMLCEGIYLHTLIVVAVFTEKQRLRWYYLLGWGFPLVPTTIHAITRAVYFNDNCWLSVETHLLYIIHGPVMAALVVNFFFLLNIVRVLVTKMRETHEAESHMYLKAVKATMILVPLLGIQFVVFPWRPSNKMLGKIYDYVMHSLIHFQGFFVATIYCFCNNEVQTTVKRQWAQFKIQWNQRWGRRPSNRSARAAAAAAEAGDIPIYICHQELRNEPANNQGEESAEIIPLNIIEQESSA

T2: human calcitonin receptor (human, UniProt P30988 25-474)
T2 sequence (looked up): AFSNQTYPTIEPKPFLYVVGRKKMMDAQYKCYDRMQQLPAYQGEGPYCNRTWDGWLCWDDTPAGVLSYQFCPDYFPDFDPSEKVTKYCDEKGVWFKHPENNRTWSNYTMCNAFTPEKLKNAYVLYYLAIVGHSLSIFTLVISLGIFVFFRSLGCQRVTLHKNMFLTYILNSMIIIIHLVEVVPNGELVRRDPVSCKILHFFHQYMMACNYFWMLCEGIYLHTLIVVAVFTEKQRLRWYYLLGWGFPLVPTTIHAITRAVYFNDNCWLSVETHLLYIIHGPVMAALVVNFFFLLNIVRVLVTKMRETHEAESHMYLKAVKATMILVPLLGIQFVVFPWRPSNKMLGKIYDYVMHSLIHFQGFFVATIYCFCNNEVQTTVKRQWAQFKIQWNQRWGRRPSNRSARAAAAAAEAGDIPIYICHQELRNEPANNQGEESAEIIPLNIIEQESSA


These binders were tested against T1, human calcitonin receptor (assay: cell-based or functional assay).

Binder	hCTR funct. EC50 (pM)
K([γGlu-γGlu-C20 diacid])CNTATCATQRLAEFLRHSSPNFGAIPSSTNVGPETY-NH2 (disulfide 2-7 (inferred), Synthetic)	2360
K([γGlu-C20 diacid])CNTATCATQRLAEFLRHSSPNFGAIPSSTNVGSHTY-NH2 (disulfide 2-7 (inferred), Synthetic)	5580
K([γGlu-C20 diacid])CNTATCATQRLADFLRHSSPNFGAIPSSTNVGPRTY-NH2 (disulfide 2-7 (inferred), Synthetic)	3640
K([γGlu-γGlu-C20 diacid])CNTATCATQRLA[dD]FLRHSSPNFGAIPSSTNVGSRTY-NH2 (disulfide 2-7 (inferred), Synthetic)	100000
K([γGlu-γGlu-C20 diacid])CNTATCATQRLASFLRHSSPNFGAIPSSTNVGPETY-NH2 (disulfide 2-7 (inferred), Synthetic; also called compound 120)	887
K([γGlu-γGlu-C20 diacid])CNTATCATQRLAEFLRHSSPNFGAIPSSTNVGPRTY-NH2 (disulfide 2-7 (inferred), Synthetic; also called compound 110)	8160
K([γGlu-γGlu-C20 diacid])CNTATCATQRLAEFLRHSSPNFGAIPSSTNVGPNTF-NH2 (disulfide 2-7 (inferred), Synthetic)	2140
K([γGlu-C14 diacid])CNTATCATQRLANFLRHSSPNFGAIPSSTNVGHNTY-NH2 (disulfide 2-7 (inferred), Synthetic)	1090
K([γGlu-γGlu-C20 diacid])CNTATCATQRLANFLRHSSPNFGAIPSSTPVGPRTY-NH2 (disulfide 2-7 (inferred), Synthetic)	8660
K([γGlu-γGlu-C20 diacid])CNTATCATQRLAEFLRHSSPNFGAIPSSTNVGHETY-NH2 (disulfide 2-7 (inferred), Synthetic)	7050
K([γGlu-γGlu-C20 diacid])CNTATCATQRLADFLRHSSPNFGAIPSSTNVGPETY-NH2 (disulfide 2-7 (inferred), Synthetic)	843
K([γGlu-C16 diacid])CNTATCATQRLANFLRHSSPNFGAIPSSTNVGHNTY-NH2 (disulfide 2-7 (inferred), Synthetic) [N^ε1-[(4S)-4-carboxy-4-(15-carboxypentadecanoylamino)butanoyl]-[Arg17,Pro21,Pro27,His34]-h-amylin]	2210
K([γGlu-γGlu-C20 diacid])CNTATCATQRLAEFLRHSSPNFGAIPSSTNVGPHTY-NH2 (disulfide 2-7 (inferred), Synthetic)	2830
K([γGlu-C20 diacid])CNTATCATQRLAEFLRHSSPNFGAIPSSTNVGPETY-NH2 (disulfide 2-7 (inferred), Synthetic)	841

Second part, the binder after the results:

hCTR funct. EC50 (pM)	Binder
5850	K([γGlu-C18 diacid])CNTATCATQRLANFLRHSSPNFGAIPSSTNVGHNTY-NH2 (disulfide 2-7 (inferred), Synthetic) [N^ε1-[(4S)-4-carboxy-4-(17-carboxyheptadecanoylamino)butanoyl]-[Arg17,Pro21,Pro27,His34]-h-amylin]
2740	K([γGlu-C20 diacid])CNTATCATQRLAEFLRHSSPNFGAIPSSTNVGRETY-NH2 (disulfide 2-7 (inferred), Synthetic)
1450	K([γGlu-C20 diacid])CNTATCATQRLAEFLRHSSPNFGAIPSSTNVGPHTY-NH2 (disulfide 2-7 (inferred), Synthetic)
7280	K([γGlu-γGlu-C20 diacid])CNTATCATQRLADFLRHSSPNFGAIPSSTNVGPRTY-NH2 (disulfide 2-7 (inferred), Synthetic; also called compound 130)
7430	K([γGlu-γGlu-C20 diacid])CNTATCATQRLAEFLRHSSPNFGAIPSSTNVGRETY-NH2 (disulfide 2-7 (inferred), Synthetic)
6380	K([γGlu-C20 diacid])CNTATCATQRLAEFLRHSSPNFGAIPSSTNVGPRTY-NH2 (disulfide 2-7 (inferred), Synthetic)
2540	K([γGlu-C20 diacid])CNTATCATQRLAEFLRHSSPNFGAIPSSTNVGHETY-NH2 (disulfide 2-7 (inferred), Synthetic; also called compound 107)

The binders below were run against T2, human calcitonin receptor (assay: cell-based or functional assay).

hCTR funct. EC50 (pM)	Binder
1480	K([AEEA-C20 diacid])CNTATCATQRLANFLRHSSPNFGAIPSSTNVGHNTY-NH2 (disulfide 2-7; N-terminus assumed; SMILES CC[C@H](C)[C@H](NC(=O)[C@H](C)NC(=O)CNC(=O)[C@H](Cc1ccccc1)NC(=O)[C@H](CC(N)=O)NC(=O)[C@@H]1CCCN1C(=O)[C@H](CO)NC(=O)[C@H](CO)NC(=O)[C@H](Cc1c[nH]cn1)NC(=O)[C@H](CCCNC(=N)N)NC(=O)[C@H](CC(C)C)NC(=O)[C@H](Cc1ccccc1)NC(=O)[C@H](CC(N)=O)NC(=O)[C@H](C)NC(=O)[C@H](CC(C)C)NC(=O)[C@H](CCCNC(=N)N)NC(=O)[C@H](CCC(N)=O)NC(=O)[C@@H](NC(=O)[C@H](C)NC(=O)[C@@H]1CSSC[C@H](NC(=O)[C@@H](N)CCCCNC(=O)COCCOCCNC(=O)CCCCCCCCCCCCCCCCCCC(=O)O)C(=O)N[C@@H](CC(N)=O)C(=O)N[C@@H]([C@@H](C)O)C(=O)N[C@@H](C)C(=O)N[C@@H]([C@@H](C)O)C(=O)N1)[C@@H](C)O)C(=O)N1CCC[C@H]1C(=O)N[C@@H](CO)C(=O)N[C@@H](CO)C(=O)N[C@H](C(=O)N[C@@H](CC(N)=O)C(=O)N[C@H](C(=O)NCC(=O)N[C@@H](Cc1c[nH]cn1)C(=O)N[C@@H](CC(N)=O)C(=O)N[C@H](C(=O)N[C@@H](Cc1ccc(O)cc1)C(N)=O)[C@@H](C)O)C(C)C)[C@@H](C)O, also called compound 91) [N^ε1-[2-[2-[2-(19-carboxynonadecanoylamino)ethoxy]ethoxy]acetyl]-[Arg17,Pro21,Pro27,His34]-h-amylin]
1090	K([γGlu-C14 diacid])CNTATCATQRLANFLRHSSPNFGAIPSSTNVGHNTY-NH2 (disulfide 2-7; N-terminus assumed; SMILES CC[C@H](C)[C@H](NC(=O)[C@H](C)NC(=O)CNC(=O)[C@H](Cc1ccccc1)NC(=O)[C@H](CC(N)=O)NC(=O)[C@@H]1CCCN1C(=O)[C@H](CO)NC(=O)[C@H](CO)NC(=O)[C@H](Cc1c[nH]cn1)NC(=O)[C@H](CCCNC(=N)N)NC(=O)[C@H](CC(C)C)NC(=O)[C@H](Cc1ccccc1)NC(=O)[C@H](CC(N)=O)NC(=O)[C@H](C)NC(=O)[C@H](CC(C)C)NC(=O)[C@H](CCCNC(=N)N)NC(=O)[C@H](CCC(N)=O)NC(=O)[C@@H](NC(=O)[C@H](C)NC(=O)[C@@H]1CSSC[C@H](NC(=O)[C@@H](N)CCCCNC(=O)CC[C@H](NC(=O)CCCCCCCCCCCCC(=O)O)C(=O)O)C(=O)N[C@@H](CC(N)=O)C(=O)N[C@@H]([C@@H](C)O)C(=O)N[C@@H](C)C(=O)N[C@@H]([C@@H](C)O)C(=O)N1)[C@@H](C)O)C(=O)N1CCC[C@H]1C(=O)N[C@@H](CO)C(=O)N[C@@H](CO)C(=O)N[C@H](C(=O)N[C@@H](CC(N)=O)C(=O)N[C@H](C(=O)NCC(=O)N[C@@H](Cc1c[nH]cn1)C(=O)N[C@@H](CC(N)=O)C(=O)N[C@H](C(=O)N[C@@H](Cc1ccc(O)cc1)C(N)=O)[C@@H](C)O)C(C)C)[C@@H](C)O)
11800	K([AEEA-AEEA-γGlu-C20 diacid])CNTATCATQRLANFLRHSSPNFGAIPSSTNVGHNTY-NH2 (disulfide 2-7; N-terminus assumed; SMILES CC[C@H](C)[C@H](NC(=O)[C@H](C)NC(=O)CNC(=O)[C@H](Cc1ccccc1)NC(=O)[C@H](CC(N)=O)NC(=O)[C@@H]1CCCN1C(=O)[C@H](CO)NC(=O)[C@H](CO)NC(=O)[C@H](Cc1c[nH]cn1)NC(=O)[C@H](CCCNC(=N)N)NC(=O)[C@H](CC(C)C)NC(=O)[C@H](Cc1ccccc1)NC(=O)[C@H](CC(N)=O)NC(=O)[C@H](C)NC(=O)[C@H](CC(C)C)NC(=O)[C@H](CCCNC(=N)N)NC(=O)[C@H](CCC(N)=O)NC(=O)[C@@H](NC(=O)[C@H](C)NC(=O)[C@@H]1CSSC[C@H](NC(=O)[C@@H](N)CCCCNC(=O)COCCOCCNC(=O)COCCOCCNC(=O)CC[C@H](NC(=O)CCCCCCCCCCCCCCCCCCC(=O)O)C(=O)O)C(=O)N[C@@H](CC(N)=O)C(=O)N[C@@H]([C@@H](C)O)C(=O)N[C@@H](C)C(=O)N[C@@H]([C@@H](C)O)C(=O)N1)[C@@H](C)O)C(=O)N1CCC[C@H]1C(=O)N[C@@H](CO)C(=O)N[C@@H](CO)C(=O)N[C@H](C(=O)N[C@@H](CC(N)=O)C(=O)N[C@H](C(=O)NCC(=O)N[C@@H](Cc1c[nH]cn1)C(=O)N[C@@H](CC(N)=O)C(=O)N[C@H](C(=O)N[C@@H](Cc1ccc(O)cc1)C(N)=O)[C@@H](C)O)C(C)C)[C@@H](C)O, also called compound 97)
